Data: patent publication US20010052137

What was measured:
[1] = system: T1, GID-2/his fusion protein (Xaxin amino acid residues 320-429 with His-epitope tag, from E. coli)
T1 sequence: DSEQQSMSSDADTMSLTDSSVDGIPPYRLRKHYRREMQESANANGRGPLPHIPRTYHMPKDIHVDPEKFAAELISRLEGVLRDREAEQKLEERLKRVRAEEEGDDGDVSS

[2] = system: T2, Myc-tagged GID-3 construct of Xaxin (amino acid residues 320-375)
T2 sequence: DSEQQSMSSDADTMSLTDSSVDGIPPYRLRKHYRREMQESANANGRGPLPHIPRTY

[3] = system: T3, Myc-tagged GID-4 construct of Xaxin (amino acid residues 350-429)
T3 sequence: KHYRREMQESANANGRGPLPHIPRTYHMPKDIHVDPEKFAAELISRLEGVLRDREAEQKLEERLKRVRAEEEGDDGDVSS

[4] = system: T4, Myc-tagged GID-2 construct of Xaxin (amino acid residues 320-429)
T4 sequence: T1 sequence

[5] = system: T5, Myc-tagged GID-6 construct of Xaxin (amino acid residues 380-404)
T5 sequence: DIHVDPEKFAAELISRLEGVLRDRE

[6] = system: T6, Myc-tagged GID-5 construct of Xaxin (amino acid residues 380-429)
T6 sequence: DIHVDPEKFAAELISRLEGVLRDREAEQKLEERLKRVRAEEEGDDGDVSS

Substance | GSK-3 beta mediated phosphorylation of the GS-2 peptide derived from glycogen synthase, in vitro [1] | phosphorylation of tau by GSK-3 beta, in vitro [1] | GSK-3 beta mediated tau phosphorylation in Xenopus oocytes [2] | GSK-3 beta mediated tau phosphorylation in Xenopus oocytes [3] | GSK-3 beta mediated tau phosphorylation in Xenopus oocytes [4] | GSK-3 beta mediated tau phosphorylation in Xenopus oocytes [5] | GSK-3 beta mediated tau phosphorylation in Xenopus oocytes [6]
Recombinantly-produced GSK-3 beta protein (New England Biolabs) | GID-2/his exhibited no significant effect on GSK-3 beta mediated phosphorylation of the GS-2 peptide | GID-2/his also did not inhibit phosphorylation of tau by GSK-3 beta, even when GID-2/his was present at a 200-fold molar excess | – | – | – | – | –
GSK-3 beta (glycogen synthase kinase-3 beta) expressed in Xenopus oocytes | – | – | did not bind GSK-3 beta and had no effect on GSK-3 beta activity | bound GSK-3 beta and inhibited GSK-3 beta mediated tau phosphorylation | bound GSK-3 beta and inhibited GSK-3 beta mediated tau phosphorylation | bound GSK-3 beta and inhibited GSK-3 beta mediated tau phosphorylation | bound GSK-3 beta and inhibited GSK-3 beta mediated tau phosphorylation
